According to doi:10.1101/2022.04.14.488403 (bioRxiv, 2022):
Values belong to the molecule of their own block, whether it stands above or below them.

Key:
K5:I-E^k = experiment: biomembrane force probe
human CD3γε ECD = human CD3γε ECD (human, UniProt P09693;P07766, biotin (BirA) on the C-terminal biotinylation sequence); experiment: biomembrane force probe
mouse CD3γε ECD = mouse CD3γε ECD (Mus musculus (Mouse)., UniProt P11942;P22646, biotin (BirA) on the C-terminal biotinylation sequence); experiment: micropipette adhesion frequency
Sequence of mouse CD3γε ECD (P11942 23-116, chain 1 of 2): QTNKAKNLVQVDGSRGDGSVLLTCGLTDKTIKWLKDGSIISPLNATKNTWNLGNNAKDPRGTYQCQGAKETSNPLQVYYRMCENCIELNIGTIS
Sequence of mouse CD3γε ECD (P22646 23-108, chain 2 of 2): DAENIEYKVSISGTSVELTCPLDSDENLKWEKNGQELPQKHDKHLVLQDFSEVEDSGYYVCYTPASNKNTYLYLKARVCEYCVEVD

Sequence of human CD3γε ECD (P09693 23-116, one chain of several): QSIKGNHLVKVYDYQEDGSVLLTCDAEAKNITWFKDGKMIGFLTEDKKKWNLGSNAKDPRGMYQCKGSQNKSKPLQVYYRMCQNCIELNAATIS

peak bond lifetime (at 15 pN) (K5:I-E^k): 1.6 s
Molecule: 2B4 TCR, wild type, fully assembled on the surface of T hybridoma cells (from UniProt P01849 1-136)

binding result (human CD3γε ECD): binds
B1: human CD3δε ECD (complex)
chain 1: FKIPIEELEDRVFVNCNTSITWVEGTVGTLLSDITRLDLGKRILDPRGIYRCNGTDIYKDKESTVQVHYRMCQSCVELDPATVA
chain 2: DGNEEMGGITQTPYKVSISGTTVILTCPQYPGSEILWQHNDKNIGGDEDDKNIGSDEDHLSLKEFSELEQSGYYVCYPRGSKPEDANFYLYLRARVCENCMEMD
modifications: biotin (BirA) on the C-terminal biotinylation sequence

binding result (mouse CD3γε ECD): binds
B2: 2C11 full-length mAb (anti-CD3ε, clone 145-2C11) (antibody, V domains shown)
VH: EVQLVESGGGLVQPGKSLKLSCEASGFTFSGYGMHWVRQAPGRGLESVAYITSSSINIKYADAVKGRFTVSRDNAKNLLFLQMNILKSEDTAMYYCARFDWDKNYWGQGTMVTVSS
VL: DIQMTQSPSSLPASLGDRVTINCQASQDISNYLNWYQQKPGKAPKLLIYYTNKLADGVPSRFSGSGSGRDSSFTISSLESEDIGSYYCQQYYNYPWTFGPGTKLEIK
